IntAct's records for PubMed 9830048

B1: Synaptotagmin-1 (Rattus norvegicus (Rat)), P21707 (parent)
chain: MVSASHPEALAAPVTTVATLVPHNATEPASPGEGKEDAFSKLKQKFMNELHKIPLPPWALIAIAIVAVLLVVTCCFCVCKKCLFKKKNKKKGKEKGGKNAINMKDVKDLGKTMKDQALKDDDAETGLTDGEEKEEPKEEEKLGKLQYSLDYDFQNNQLLVGIIQAAELPALDMGGTSDPYVKVFLLPDKKKKFETKVHRKTLNPVFNEQFTFKVPYSELGGKTLVMAVYDFDRFSKHDIIGEFKVPMNTVDFGHVTEEWRDLQSAEKEEQEKLGDICFSLRYVPTAGKLTVVILEAKNLKKMDVGGLSDPYVKIHLMQNGKRLKKKKTTIKKNTLNPYYNESFSFEVPFEQIQKVQVVVTVLDYDKIGKNDAIGKVFVGYNSTGAELRHWSDMLANPRRPIAQWHTLQVEEEVDAMLAVKK

Variants of: B1
Details: with cac1b_rat Cacna1b

Row | effect of a mutation on the interaction | Variant
1 | decreasing interaction | K326A;K327A

Variants of: B1
Details: with ap2a2_rat Ap2a2, P18484
Chain of ap2a2_rat Ap2a2, P18484 (P18484 whole entry): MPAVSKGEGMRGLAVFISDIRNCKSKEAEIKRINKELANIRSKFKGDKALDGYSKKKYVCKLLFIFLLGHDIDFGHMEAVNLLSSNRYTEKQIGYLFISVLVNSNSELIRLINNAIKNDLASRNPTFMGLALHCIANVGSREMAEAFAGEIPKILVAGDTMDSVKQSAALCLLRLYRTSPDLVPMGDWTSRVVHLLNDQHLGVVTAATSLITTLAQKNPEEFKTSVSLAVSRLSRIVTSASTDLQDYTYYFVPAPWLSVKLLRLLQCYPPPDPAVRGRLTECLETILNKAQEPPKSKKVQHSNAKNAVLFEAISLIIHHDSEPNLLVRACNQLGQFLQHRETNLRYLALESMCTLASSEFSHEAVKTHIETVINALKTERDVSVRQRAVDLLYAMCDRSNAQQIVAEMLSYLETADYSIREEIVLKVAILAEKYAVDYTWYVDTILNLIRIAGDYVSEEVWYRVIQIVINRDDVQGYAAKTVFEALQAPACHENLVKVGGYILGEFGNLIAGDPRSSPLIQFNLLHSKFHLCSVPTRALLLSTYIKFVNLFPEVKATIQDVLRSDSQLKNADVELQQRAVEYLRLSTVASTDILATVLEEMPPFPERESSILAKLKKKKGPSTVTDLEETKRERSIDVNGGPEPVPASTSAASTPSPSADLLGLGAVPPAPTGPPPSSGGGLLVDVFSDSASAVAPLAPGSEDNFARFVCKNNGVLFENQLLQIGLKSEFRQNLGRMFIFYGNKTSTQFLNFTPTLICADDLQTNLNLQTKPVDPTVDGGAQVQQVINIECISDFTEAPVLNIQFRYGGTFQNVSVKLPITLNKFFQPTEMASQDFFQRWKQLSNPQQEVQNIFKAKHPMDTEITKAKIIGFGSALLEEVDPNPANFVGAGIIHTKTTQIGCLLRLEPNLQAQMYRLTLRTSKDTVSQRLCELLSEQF

Row | effect of a mutation on the interaction | Variant
2 | decreasing interaction | K326A;K327A
